Assay results: patent US20190135915A1 (SYNTIMMUNE, published 2019)
Where a chain is given by its changes, count along the chain named. Numbers in names are those of the source. Blank lines part the entries; values can stand above or below the binder they belong to.

Experiments:
[1] = biological target: T1, FcRn (analyte in the Biacore T200 study) (human, UniProt P55899 24-297; P61769 21-119, limits assumed); assay: SPR Biacore T200, antibody amine-coupled to CM5, FcRn analyte, 1:1 model; pH not stated
T1 construct: also called human FcRn
Description: (§1) Antibodies were immobilized onto a Series S CM5 sensor chip surface using standard amine coupling chemistry and analyte (FcRn) flowed over the surface. A 2-fold dilution range was selected from 50-0.01 nM FcRn. The association phase of FcRn analyte was monitored for 450 seconds, and dissociation was initially measured for either 250 or 2500 seconds, at 40 μl/min Fc1 was a reference channel and was subtracted from other flow cells to correct for non-specific binding. […] Kinetic values are based on a 1:1 binding model (Table 5).

[2] = biological target: T2, recombinant human FcRn (Sino Biological Inc. Cat. No. CT009-H08H) (human, UniProt P55899 24-297; P61769 21-119); assay: competition ELISA, pH 7.4: test IgG4 (stable NS0) titrated against fixed biotinylated murine parent antibody on recombinant human FcRn; streptavidin-HRP/TMB, OD450 [bottom panel]
T2 construct: also called immobilized FcRn
Description: (§2) The IgG4 antibodies were tested for antigen binding in a competition ELISA at pH 6.0 and pH 7.4. A Nunc Immuno MaxiSorp 96 well flat bottom microtitre plate (Fisher, cat. no. DIS-971-030J) was pre-coated with 1 μg/ml of an FcRn antibody specific for an IgG-binding epitope distinct from the albumin-binding region overnight at pH 7.4. The following day, 1 μg/ml recombinant human FcRn (Sino Biological Inc. cat. no. CT009-H08H) diluted in PBS pH 7.4 was added to the wells and incubated for 1 hour at 37° C. After washing the plates 3× with PBST pH 7.4, the plates were blocked with PBSM pH 7.4 for 1 hour at 37° C. From this point onwards, all wash and incubation steps were performed at the chosen assay pH (pH 6.0 or 7.4). […] The reaction was stopped with 3 M HCl, absorbance read at 450 nm on a Dynex Technologies MRX TC II plate reader and the binding curves plotted.
(§3) NS0 produced humanized affinity matured IgGs were used in all assays other than G50_C10/Vκ3), which was purified from transiently expressing HEK cells.

[3] = biological target: T3, monomeric His-tagged hFcRn (human, UniProt P55899 24-297; P61769 21-119, limits assumed); assay: SPR Biacore 3000, antibody amine-coupled to CM5, His-tagged hFcRn analyte, pH 6.0, 25 C, 1:1 Langmuir
T3 construct: also called human FcRn; not shown: His tag
Description: (§4) The coupling was performed by injecting 2 μg/ml of each protein into 10 mM sodium acetate, pH 4.5 (GE Healthcare), using the amine coupling kit (GE Healthcare). HBS-P buffer pH 7.4 (0.01 M HEPES, 0.15 M NaCl, 0.005% surfactant P20) or phosphate buffer pH 6.0 (67 mM phosphate buffer, 0.15 M NaCl, 0.005% Tween 20) were used as running buffer and dilution buffer. […] All SPR experiments were conducted at 25° C. with a flow rate of 40 μl/min Binding data were zero-adjusted, and the reference cell value subtracted. The Langmuir 1:1 ligand binding model provided by the BIAevaluation software (version 4.1) was used to determine the binding kinetics. The closeness of the fit is described by the statistical value χ².

[4] = biological target: T2, recombinant human FcRn (Sino Biological …); assay: competition ELISA, pH 6.0: test IgG4 (stable NS0) titrated against fixed biotinylated murine parent antibody on recombinant human FcRn; streptavidin-HRP/TMB, OD450 [bottom panel]
Description: as §2, §3

[5] = biological target: T2, recombinant human FcRn (Sino Biological …); assay: competition ELISA, pH 6.0: test IgG4 (stable NS0) titrated against fixed biotinylated murine parent antibody on recombinant human FcRn; streptavidin-HRP/TMB, OD450 [middle panel]
Description: as §2, §3

[6] = biological target: T2, recombinant human FcRn (Sino Biological …); assay: competition ELISA, pH 7.4: test IgG4 (stable NS0) titrated against fixed biotinylated murine parent antibody on recombinant human FcRn; streptavidin-HRP/TMB, OD450 [middle panel]
Description: as §2, §3

[7] = biological target: T1, FcRn (analyte in the Biacore T200 study); assay: SPR Biacore T200, antibody amine-coupled to CM5, FcRn analyte, 1:1 model; chip with the three best variants (repeat run, dissociation 4500 s per paragraph 156); pH not stated
Description: as §1

[8] = biological target: T3, monomeric His-tagged hFcRn; assay: SPR Biacore 3000, antibody amine-coupled to CM5, His-tagged hFcRn analyte, pH 7.4, 25 C, 1:1 Langmuir
Description: as §4
The kinetic rate constants were obtained using a simple first-order (1:1) Langmuir bimolecular interaction model. The kinetic values represent the average of duplicates. The χ² (chi-square) values represent the fit to the binding model used.

[9] = biological target: T2, recombinant human FcRn (Sino Biological …); assay: competition ELISA, pH 6.0; competitor biotinylated parent murine antibody; captured recombinant human FcRn; NS0-expressed IgG4
Description: as §2, §3

[10] = biological target: T2, recombinant human FcRn (Sino Biological …); assay: competition ELISA, pH 6.0; competitor biotinylated parent murine antibody; captured recombinant human FcRn; HEK-expressed IgG4
Description: as §2

[11] = biological target: T2, recombinant human FcRn (Sino Biological …); assay: competition ELISA, pH 7.4; competitor biotinylated parent murine antibody; captured recombinant human FcRn; NS0-expressed IgG4
Description: as §2, §3

[12] = biological target: T1, FcRn (analyte in the Biacore T200 study); assay: SPR Biacore T200, antibody amine-coupled to CM5, FcRn analyte, 1:1 model; chip with the three best variants (repeat run, dissociation 4500 s per paragraph 156); pH not stated; repeat run of the three best variants, dissociation 4500 s
Description: as §1

[13] = biological target: T2, recombinant human FcRn (Sino Biological …); assay: competition ELISA, pH 7.4: test IgG4 (stable NS0) titrated against fixed biotinylated murine parent antibody on recombinant human FcRn; streptavidin-HRP/TMB, OD450 [top panel]
Description: as §2, §3

[14] = biological target: T2, recombinant human FcRn (Sino Biological …); assay: competition ELISA, pH 7.4: test IgG4 (transient HEK) titrated against fixed biotinylated murine parent antibody on recombinant human FcRn; streptavidin-HRP/TMB, OD450
Description: as §2

[15] = biological target: T2, recombinant human FcRn (Sino Biological …); assay: competition ELISA, pH 6.0: test IgG4 (stable NS0) titrated against fixed biotinylated murine parent antibody on recombinant human FcRn; streptavidin-HRP/TMB, OD450 [top panel]
Description: as §2, §3

[16] = biological target: T2, recombinant human FcRn (Sino Biological …); assay: competition ELISA, pH 7.4; competitor biotinylated parent murine antibody; captured recombinant human FcRn; HEK-expressed IgG4
Description: as §2

[17] = biological target: T1, FcRn (analyte in the Biacore T200 study); assay: SPR Biacore T200; KD of humanized parent VH1/Vκ1 divided by KD of the test antibody on the same chip
Description: as §1

B1: G49_H9.3/Vκ3 (antibody, V domains shown)
VH: EVQLVESGGGLVKPGGSLKLSCAASGFTFSDYGMHWVRQAPGKGLEWVAYISSGSSTIYYADTVKGRFTISRDNAKNTLYLQMNSLRAEDTAMYYCARFDSLSTVGDYWGQGTSVTVSS
VL: DIVMTQSPDSLSASVGDRVTITCKASQSVSNDVAWYQQKPGQPPKLLIYYASNRYTGVPDRFSGSGYGTDFTLTISSLQAEDVAVYFCQQDYSSLTFGQGTKLEIK
notes: Bivalent IgG4 with S241P, human kappa; also called SYNT002-21; G49_H9.3 VH1
Kd [1]: 1.11 nM | IC50 (read off the curve) [2]: ~0.5 µg/mL | Kd [3]: 1.7 nM | IC50 (read off the curve) [4]: ~0.2 µg/mL

B2: G15_C3/Vκ3 (antibody, V domains shown)
VH: B1 VH with F99G, D100E, L102T, S103T
VL: B1 VL
notes: Bivalent IgG4 with S241P, human kappa; also called SYNT002-3; G15_C3 VH1
Kd [3]: 0.7 nM | IC50 (read off the curve) [5]: ~0.3 µg/mL | IC50 (read off the curve) [6]: ~0.5 µg/mL | Kd [7]: 0.39 nM | Kd [8]: 7.8 nM

B6: G47_B10/Vκ3 (antibody, V domains shown)
VH: B1 VH with F99A, D100E, L102T, S103T
VL: B1 VL
notes: Bivalent IgG4 with S241P, human kappa; also called SYNT002-8; G47_B10VH1_Vκ3
Kd [12]: 0.24 nM | IC50 (read off the curve) [13]: ~0.5 µg/mL | Kd [1]: 0.33 nM | IC50 (read off the curve) [14]: ~0.2 µg/mL | Kd [3]: 0.6 nM | IC50 (read off the curve) [15]: ~0.3 µg/mL | Kd [8]: 4 nM

B7: G47_H6/Vκ3 (antibody, IgG4, V domains shown)
VH: B1 VH with D100S
VL: B1 VL
notes: IgG4 with S241P, human kappa; also called G47_H6 VH1
Kd [1]: 2.09 nM | koff [1]: 0.000814 s⁻¹ | kon [1]: 389000 M⁻¹ s⁻¹ | Average relative IC50 (relative to humanized parent) [9]: 0.84 | Average relative IC50 (relative to humanized parent) [10]: 0.8 | Average relative IC50 (relative to humanized parent) [11]: 0.89 | Average relative IC50 (relative to humanized parent) [16]: 0.7 | Fold difference in KD [17]: 1.2 fold

Next, values leading:

Kd [1]: 1.99 nM
B3: G52_G9/Vκ3 (antibody, V domains shown)
VH: B1 VH with S101T, L102P
VL: B1 VL
notes: Bivalent IgG4 with S241P, human kappa; also called G52_G9 VH1

Kd [1]: 1.21 nM | Average relative IC50 (relative to humanized parent) [9]: 0.8 | Average relative IC50 (relative to humanized parent) [10]: 0.8 | Average relative IC50 (relative to humanized parent) [11]: 0.87
B4: G49_H9.5/Vκ3 (antibody, V domains shown)
VH: B1 VH with F99L, D100E, S101A, L102V, T104A
VL: B1 VL
notes: Bivalent IgG4 with S241P, human kappa; also called G49_H9.5 VH1

Kd [1]: 3.71 nM | IC50 (read off the curve) [4]: ~0.3 µg/mL | Kd [8]: 34 nM
B5: G54_D11/Vκ3 (antibody, V domains shown)
VH: B1 VH with S101T, L102P, S103A
VL: B1 VL
notes: Bivalent IgG4 with S241P, human kappa; also called SYNT002-17; G54_D11 VH1
